Results on 3 molecules are retold here after publication PMC11742915 (Nature Communications, 2025).

In one experiment the target is IFNλR1 (Homo sapiens) (UniProt Q8IU57). The note with it: cited from earlier work.
In a further experiment the target is T1, IFNλ4 (human, UniProt K9M1U5-1 22-179).
T1 chain: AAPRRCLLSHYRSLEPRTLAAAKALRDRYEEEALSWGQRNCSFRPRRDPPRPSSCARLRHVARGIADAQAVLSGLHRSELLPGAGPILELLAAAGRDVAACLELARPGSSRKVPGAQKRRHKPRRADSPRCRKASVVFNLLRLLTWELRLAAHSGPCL
Nature of the experiment: MST.

In a further experiment the target is T2, IFNλ3 (UniProt Q8IZI9 34-196).
T2 chain: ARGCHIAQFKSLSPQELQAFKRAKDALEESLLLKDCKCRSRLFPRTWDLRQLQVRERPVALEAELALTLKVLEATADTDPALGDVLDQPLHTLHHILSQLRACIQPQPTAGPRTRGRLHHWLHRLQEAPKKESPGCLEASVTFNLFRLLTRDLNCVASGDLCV
Nature of the experiment: MST.

Experiment [1] concerns the target T3, IFNλR1 (UniProt Q8IU57 21-226, biotin (in SPR, MST and yeast staining); fluorescent dye NanoTemper NT-L020 (in MST)). Nature of the experiment: cell-based or functional assay.
Experiment [2] has as its target T3, IFNλR1. Nature of the experiment: SPR; Biacore T200, 22 °C, equilibrium method; ~850 RU biotinylated IFNλR1 captured on a Biotin CAPture chip, IFNλ4 as analyte, nine points; 10 mM MES pH 5.6, 500 mM NaCl, 10% glycerol, 0.05% Tween20; 1:1 binding model. To be noted: both partners purified.

IFNλ3 (from UniProt Q8IZI9): the Kd with IFNλR1 (Homo sapiens) was 850 nM.

B1: IFNλR1 (receptor)
chain: RPRLAPPQNVTLLSQNFSVYLTWLPGLGNPQDVTYFVAYQSSPTRRRWREVEECAGTKELLCSMMCLKKQDLYNKFKGRVRTVSPSSKSPWVESEYLDYLFEVEPAPPVLVLTQTEEILSANATYQLPPCMPPLDLKYEVAFWKEGAGNKTLFPVTPHGQPVQITLQPAASEHHCLSARTIYTFSVPKYSKFSKPTCFLLEVPEAN
modifications: biotin (in SPR, MST and yeast staining); fluorescent dye NanoTemper NT-L020 (in MST)
Turning to B1, the Kd in the experiment with IFNλ4 was found to be 396 nM; in the experiment with IFNλ3, 1580 nM.

B2: IFNλ4 (ligand, human, UniProt K9M1U5-1 22-179, looked up)
chain: T1 chain
notes: codon-optimised gene; also called interferon lambda 4; source: insect Hi5 cells (baculovirus), secreted as sfGFP-10RB-IFNλ4, cleaved with 3C protease, purified (S75 Superdex)
B2: the “pSTAT1 signaling in Hap1 cells, EC50 relative to IFNλ3” value with IFNλR1 [1] worked out at 20 fold. In the experiment with IFNλR1 [2], the Kd turned out to be 191 nM.
